What was measured:
[1] = biological target: the molecule itself; assay: SEC-MALS
[2] = biological target: the molecule itself; assay: SAXS

Protein | stoichiometry N [1] | stoichiometry N [2]
full-length XRCC4 (natural protein, human, UniProt Q13426 1-336, looked up) MERKISRIHLVSEPSITHFLQVSWEKTLESGFVITLTDGHSAWTGTVSESEISQEADDMAMEKGKYVGELRKALLSGAGPADVYTFNFSKESCYFFFEKNLKDVSFRLGSFNLEKVENPAEVIRELICYCLDTIAENQAKNEHLQKENERLLRDWNDVQGRFEKCVSAKEALETDLYKRFILVLNEKKTKIRSLHNKLLNAAQEREKDIKQEGETAICSEMTADRDPVYDESTDEESENQTDLSGLASAAVSKDDSIISSLDVTDIAPSRKRRQRMQRNLGTEPKMAPQENQLQEKENSRPDSSLPETSKKEHISAENMSLETLRNSSPEDLFDEI | 4 | –
XRCC4 1-161 (domain or fragment, human, UniProt Q13426 1-161, looked up) MERKISRIHLVSEPSITHFLQVSWEKTLESGFVITLTDGHSAWTGTVSESEISQEADDMAMEKGKYVGELRKALLSGAGPADVYTFNFSKESCYFFFEKNLKDVSFRLGSFNLEKVENPAEVIRELICYCLDTIAENQAKNEHLQKENERLLRDWNDVQGR | – | 2
XRCC4 1-140 (domain or fragment, human, UniProt Q13426 1-140, looked up) MERKISRIHLVSEPSITHFLQVSWEKTLESGFVITLTDGHSAWTGTVSESEISQEADDMAMEKGKYVGELRKALLSGAGPADVYTFNFSKESCYFFFEKNLKDVSFRLGSFNLEKVENPAEVIRELICYCLDTIAENQAK | – | 2
